Values of other authors as cited in paper PMC5742237.
pKd: −log10 of the molar value. Where two headings read alike, the source gives them in different places.

Key:
[1] = biological target: Transhydrogenase domain I dimer domain I (Rhodospirillum rubrum) (UniProt Q2RSB2)
[2] = biological target: Transhydrogenase domain I dimer domain I (Rhodospirillum rubrum) (UniProt Q2RSB2); remark: listed apart in the source

Chain of UniProt Q2RSB2 (Q2RSB2 whole entry, the tested form may be a part): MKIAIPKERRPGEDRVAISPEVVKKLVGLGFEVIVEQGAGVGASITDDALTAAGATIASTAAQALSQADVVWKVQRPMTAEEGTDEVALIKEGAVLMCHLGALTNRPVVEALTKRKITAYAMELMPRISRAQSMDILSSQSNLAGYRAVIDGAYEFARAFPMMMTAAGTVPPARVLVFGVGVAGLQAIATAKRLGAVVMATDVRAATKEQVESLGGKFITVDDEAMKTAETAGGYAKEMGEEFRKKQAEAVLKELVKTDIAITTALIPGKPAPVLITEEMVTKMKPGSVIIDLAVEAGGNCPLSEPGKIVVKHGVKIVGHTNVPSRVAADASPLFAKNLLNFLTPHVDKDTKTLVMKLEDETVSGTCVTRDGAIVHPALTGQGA

| pKd [1] | pKd [2] | Substance |
| --- | --- | --- |
| > 7.22 | – | Transhydrogenase domain III domain III (from UniProt Q2RSB4) |
| – | 5.00 | Transhydrogenase domain III (second) domain III (from UniProt Q2RSB4) |
